In publication PMC2171422 (The Journal of Cell Biology, 2005):

Target: T1, protein A–Sro7p (yeast (budding yeast), UniProt Q12038 1-1033)
T1 sequence: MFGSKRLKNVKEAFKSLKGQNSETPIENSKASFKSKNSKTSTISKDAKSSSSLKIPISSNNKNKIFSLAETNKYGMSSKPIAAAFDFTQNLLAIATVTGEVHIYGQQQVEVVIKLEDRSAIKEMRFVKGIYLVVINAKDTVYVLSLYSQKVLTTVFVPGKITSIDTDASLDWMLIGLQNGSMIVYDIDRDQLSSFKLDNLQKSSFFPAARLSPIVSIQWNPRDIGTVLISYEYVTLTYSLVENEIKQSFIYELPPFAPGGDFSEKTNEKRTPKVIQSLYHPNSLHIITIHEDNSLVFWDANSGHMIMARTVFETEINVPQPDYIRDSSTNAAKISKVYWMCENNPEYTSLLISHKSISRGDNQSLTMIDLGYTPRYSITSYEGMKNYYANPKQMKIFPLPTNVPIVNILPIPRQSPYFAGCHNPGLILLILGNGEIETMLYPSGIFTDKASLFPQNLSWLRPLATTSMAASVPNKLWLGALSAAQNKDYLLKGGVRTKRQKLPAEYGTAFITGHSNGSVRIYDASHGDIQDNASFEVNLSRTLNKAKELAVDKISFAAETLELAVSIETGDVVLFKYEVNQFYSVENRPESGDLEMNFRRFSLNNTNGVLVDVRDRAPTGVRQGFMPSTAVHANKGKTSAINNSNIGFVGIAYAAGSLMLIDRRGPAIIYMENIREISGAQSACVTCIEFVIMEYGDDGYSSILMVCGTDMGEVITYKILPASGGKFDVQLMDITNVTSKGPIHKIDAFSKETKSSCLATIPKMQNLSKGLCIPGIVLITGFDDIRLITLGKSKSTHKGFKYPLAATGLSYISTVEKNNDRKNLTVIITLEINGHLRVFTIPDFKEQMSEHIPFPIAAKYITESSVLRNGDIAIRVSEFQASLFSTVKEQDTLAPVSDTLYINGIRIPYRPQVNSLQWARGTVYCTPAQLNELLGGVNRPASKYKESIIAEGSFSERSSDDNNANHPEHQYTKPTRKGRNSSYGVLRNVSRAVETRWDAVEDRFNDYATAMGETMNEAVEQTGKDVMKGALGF
Assay: pull-down

Kd: 46 ± 6 nM
B1: Exo84p NH2-terminal domain (aa 1–320) GST fusion protein (domain or fragment)
chain: MVEFSLKKARNNWKHVKKSASSPAKQKTPPSPAKPKQKTKKNPYSDLKDPATSYTLPTINARERSRVATSMQRRLSIHNTNYAPPTLDYSMPLPDMPNMIVPNDNVDSSHNNSSFTTENESVSSKGPSNSLNLSTADLSLNDSSYNKVPARSAMRNTVNPSGSNDPFNNSTSLRKMLANPHFNAKDFVHDKLGNASAITIDKFTSNLTDLSIQVQEEVKLNINKSYNEIMTVNNDLNVAMLELKRVRANINDLNEVLDQCTKIAEKRLQLQDQIDQERQGNFNNVESHSNSPALLPPLKAGQNGNLMRRDRSSVLILEKF
